% Inhibition data for 40 molecules are collected here from patent US20050282739A1.

Square brackets hold non-standard residues; d marks the D form. Ends that are not written are not given here. pGlu = O=C1CC[C@@H](C(=O)O)N1; Nle = CCCC[C@H](N)C(=O)O

The labels stand for the following.
B1: metallopeptide 8-7 (peptide)
peptide: [dF]QWCAVGHLL-NH2
modifications: not fully specified (bridges); printed as D-Phe-Gln-Trp-Cys-Ala-Val-Gly-His-Leu-Leu-NH2; also: oxorhenium(V) N3S1 tetradentate complex at Cys 4
B2: metallopeptide 8-1 (peptide)
peptide: [dF]QWAVGHLLC-NH2
modifications: bridge (positions not given here) via ReOCl3(PPh3)2; also: oxorhenium(V) N3S1 tetradentate complex at Cys 10
B3: metallopeptide 9-2 (peptide)
peptide: [dF]QWAVGHCL-NH2
modifications: not fully specified (bridges); printed as D-Phe-Gln-Trp-Ala-Val-Gly-His-Cys-Leu-NH2; also: Re(V)=O chelate (N3S1) at Cys8
B4: metallopeptide 9-4 (peptide)
peptide: [dF]QWAVCHLL-NH2
modifications: not fully specified (bridges); printed as D-Phe-Gln-Trp-Ala-Val-Cys-His-Leu-Leu-NH2; also: Re(V)=O complexed at Cys (N3S1 chelate)
B5: metallopeptide 9-7 (peptide)
peptide: [dF]QCAVGHLL-NH2
modifications: not fully specified (bridges); printed as D-Phe-Gln-Cys-Ala-Val-Gly-His-Leu-Leu-NH2; also: Re(V)=O complexed at Cys (N3S1 chelate)
B6: metallopeptide 9-3 (peptide)
peptide: [dF]QWAVGCLL-NH2
modifications: not fully specified (bridges); printed as D-Phe-Gln-Trp-Ala-Val-Gly-Cys-Leu-Leu-NH2; also: Re(V)=O chelate (N3S1) at Cys7
B7: metallopeptide 8-4 (peptide)
peptide: [dF]QWAVGCHLL-NH2
modifications: bridge (positions not given here) via ReOCl3(PPh3)2; also: oxorhenium(V) N3S1 tetradentate complex at Cys 7
B8: metallopeptide 9-5 (peptide)
peptide: [dF]QWACGHLL-NH2
modifications: not fully specified (bridges); printed as D-Phe-Gln-Trp-Ala-Cys-Gly-His-Leu-Leu-NH2; also: Re(V)=O complexed at Cys (N3S1 chelate)
B9: metallopeptide 8-3 (peptide)
peptide: [dF]QWAVGHCLL-NH2
modifications: bridge (positions not given here) via ReOCl3(PPh3)2; also: oxorhenium(V) N3S1 tetradentate complex at Cys 8
B10: metallopeptide 8-6 (peptide)
peptide: [dF]QWACVGHLL-NH2
modifications: not fully specified (bridges); printed as D-Phe-Gln-Trp-Ala-Cys-Val-Gly-His-Leu-Leu-NH2; also: oxorhenium(V) N3S1 tetradentate complex at Cys 5
B11: bombesin analog parent polypeptide D-Phe-Gln-Trp-Ala-Val-Gly-His-Leu-Leu-NH2 (peptide)
peptide: [dF]QWAVGHLL-NH2
modifications: N-terminus assumed
SMILES: CC(C)C[C@H](NC(=O)[C@H](CC(C)C)NC(=O)[C@H](Cc1c[nH]cn1)NC(=O)CNC(=O)[C@@H](NC(=O)[C@H](C)NC(=O)[C@H](Cc1c[nH]c2ccccc12)NC(=O)[C@H](CCC(N)=O)NC(=O)[C@H](N)Cc1ccccc1)C(C)C)C(N)=O
B12: metallopeptide 8-2 (peptide)
peptide: [dF]QWAVGHLCL-NH2
modifications: bridge (positions not given here) via ReOCl3(PPh3)2; also: oxorhenium(V) N3S1 tetradentate complex at Cys 9
B13: metallopeptide 8-5 (peptide)
peptide: [dF]QWAVCGHLL-NH2
modifications: bridge (positions not given here) via ReOCl3(PPh3)2; also: oxorhenium(V) N3S1 tetradentate complex at Cys 6
B14: metallopeptide 8-8 (peptide)
peptide: [dF]QCWAVGHLL-NH2
modifications: not fully specified (bridges); printed as D-Phe-Gln-Cys-Trp-Ala-Val-Gly-His-Leu-Leu-NH2; also: Re(V)=O chelate (N3S1) at Cys3
B15: metallopeptide 9-6 (peptide)
peptide: [dF]QWCVGHLL-NH2
modifications: not fully specified (bridges); printed as D-Phe-Gln-Trp-Cys-Val-Gly-His-Leu-Leu-NH2; also: Re(V)=O complexed at Cys (N3S1 chelate)

This experiment deals with bombesin receptor of rat brain membranes (rat). Kind of experiment: 125I-Bombesin competition, rat brain membranes.
By % Inhibition is commonly meant the drop in the measured response relative to a control, in per cent. For the molecule B1, the % Inhibition came out at 8%.
Regarding XQRLGNQWAVGHLM (not fully specified; pyroglutamic acid (Pyr) 1; C-terminal amide) [bombesin parent polypeptide Pyr-Gln-Arg-Leu-Gly-Asn-Gln-Trp-Ala-Val-Gly-His-Leu-Met-NH2], the % Inhibition came out at 106%.
B2: the % Inhibition was found to be 39%.
Regarding XQRLGNQWAVGCLX (Pyr 1; Nle 14; C-terminal amide; Re complexed at Cys 12) [metallopeptide 7-3], the % Inhibition is 82%.
Consider XQRCGNQWAVGHLX (Pyr 1; Nle 14; C-terminal amide; Re complexed at Cys 4) [metallopeptide 7-11], for which the % Inhibition was 95%.
The figure for XQRLGNQWACGHLX (Pyr 1; Nle 14; C-terminal amide; Re complexed at Cys 10) [metallopeptide 7-5] is 61%.
Regarding [pGlu]QRLGNQCWAVGHL[Nle]-NH2 (also: Re(V)=O N3S1 chelate at Cys8 (from ReOCl3(PPh3)2)) [metallopeptide 6-8], the % Inhibition was found to be 75%.
With XQRLGNQWAVGHLCX (Pyr 1; Nle 15; C-terminal amide; Re complexed at Cys 14) [metallopeptide 6-2] the figure was 91%.
Turning to B3, the % Inhibition stood at 35%.
Consider [pGlu]QRLGNQWAVGHL[Nle]C-NH2 (also: oxorhenium(V) N3S1 chelate at Cys15) [metallopeptide 6-1], for which the % Inhibition worked out at 82%.
As to B4, the % Inhibition was found to be 75%.
Regarding [pGlu]QRLGNQWAVCGHL[Nle]-NH2 (also: Re(V)=O N3S1 chelate at Cys11 (from ReOCl3(PPh3)2)) [metallopeptide 6-5], the % Inhibition amounted to 67%.
The figure for [pGlu]QRLGNQWAVGCHL[Nle]-NH2 (also: Re(V)=O N3S1 chelate at Cys12 (from ReOCl3(PPh3)2)) [metallopeptide 6-4] is 70%; for B5 it is 19%.
As for [pGlu]QRLGCNQWAVGHL[Nle]-NH2 (also: oxorhenium(V) N3S1 chelate at Cys6) [metallopeptide 6-10], the % Inhibition was found to be 93%.
As for XQRLGNQWCVGHLX (Pyr 1; Nle 14; C-terminal amide; Re complexed at Cys 9) [metallopeptide 7-6], the % Inhibition stood at 91%.
The figure for XQRLGCQWAVGHLX (Pyr 1; Nle 14; C-terminal amide; Re complexed at Cys 6) [metallopeptide 7-9] is 93%; for B6 it is 70%; for XQRLGNQWAVGHLC (Pyr 1; C-terminal amide; Re complexed at Cys 14) [metallopeptide 7-1] it is 73%.
Consider B7, for which the % Inhibition was 59%.
Ac-AQCRLGNQWAVGHL[Nle]-NH2 (also: Re(V)=O N3S1 chelate at Cys3 (from ReOCl3(PPh3)2)) [metallopeptide 6-13]: the % Inhibition amounted to 99%.
XQRLGNQWAVGHCX (Pyr 1; Nle 14; C-terminal amide; Re complexed at Cys 13) [metallopeptide 7-2]: the % Inhibition is 66%.
The figure for XQRLGNCWAVGHLX (Pyr 1; Nle 14; C-terminal amide; Re complexed at Cys 7) [metallopeptide 7-8] is 84%.
On to [pGlu]QRLGNCQWAVGHL[Nle]-NH2 (also: Re(V)=O N3S1 chelate at Cys7 (from ReOCl3(PPh3)2)) [metallopeptide 6-9], for which the % Inhibition turned out to be 91%.
For [pGlu]QRLGNQWAVGHCL[Nle]-NH2 (also: Re(V)=O N3S1 chelate at Cys13 (from ReOCl3(PPh3)2)) [metallopeptide 6-3], the % Inhibition turned out to be 71%.
In the case of B8, the % Inhibition is 17%.
In the case of [pGlu]QRLGNQWCAVGHL[Nle]-NH2 (also: Re(V)=O N3S1 chelate at Cys9 (from ReOCl3(PPh3)2)) [metallopeptide 6-7], the % Inhibition was 62%.
For XQRLGNQWAVCHLX (Pyr 1; Nle 14; C-terminal amide; Re complexed at Cys 11) [metallopeptide 7-4], the % Inhibition was found to be 81%.
For the molecule B9, the % Inhibition turned out to be 49%.
Take B10: the % Inhibition amounted to 35%.
The figure for B11 is 92%.
With Ac-AQCLGNQWAVGHL[Nle]-NH2 (also: Re(V)=O N3S1 chelate at Cys3 (from ReOCl3(PPh3)2)) [metallopeptide 7-12] the figure was 96%.
Consider B12, for which the % Inhibition was 75%.
Turning to [pGlu]QRCLGNQWAVGHL[Nle]-NH2 (also: Re(V)=O N3S1 chelate at Cys4 (from ReOCl3(PPh3)2)) [metallopeptide 6-12], the % Inhibition came to 97%.
With B13, the % Inhibition stood at 70%.
As to XQRLGNQCAVGHLX (Pyr 1; Nle 14; C-terminal amide; Re complexed at Cys 8) [metallopeptide 7-7], the % Inhibition was -2%.
Consider [dF]QWAVGHLC-NH2 (not fully specified (bridges); also: Re(V)=O chelate (N3S1) at Cys9) [metallopeptide 9-1], for which the % Inhibition worked out at 86%.
For the molecule [pGlu]QRLGNQWACVGHL[Nle]-NH2 (also: Re(V)=O N3S1 chelate at Cys10 (from ReOCl3(PPh3)2)) [metallopeptide 6-6], the % Inhibition is 83%.
On to B14, for which the % Inhibition was 62%.
For the molecule B15, the % Inhibition was found to be 43%.
